Test results published in PMC3794157, “Structure of the Fibrillin-1 N-Terminal Domains Suggests that Heparan Sulfate Regulates the Early Stages of Microfibril Assembly” (Structure(London, England:1993), 2013).

How the values were obtained:
Test in all cases: pull-down; biotinylated cbEGF41-43 or control cbEGF32-34 immobilised on M270 streptavidin-coated magnetic beads; 15 ug His-tagged protein in 50 mM Tris-HCl pH 7.4, 150 mM NaCl, 2 mM CaCl2, 0.05% Tween-20, 1% BSA for 1 hr; western blot with anti-RGS-His-HRP
Conditions in all cases: both partners purified
[1] = target: T1, FUN-EGF3 mutant lacking the 63Y-N-A-Y66 motif in the FUN domain (human, UniProt P35555 45-178, 63Y-N-A-Y66 deleted)
T1 construct: human fibrillin-1 FUN-EGF3, residues R45-E178, with 63Y-N-A-Y66 deleted; also called YNAY FUN-EGF3
T1 sequence (P35555 other isoform, or with tags, fused parts or gaps 63Y-N-A-Y66 deleted | 63Y-N-A-Y66 deleted | mutant): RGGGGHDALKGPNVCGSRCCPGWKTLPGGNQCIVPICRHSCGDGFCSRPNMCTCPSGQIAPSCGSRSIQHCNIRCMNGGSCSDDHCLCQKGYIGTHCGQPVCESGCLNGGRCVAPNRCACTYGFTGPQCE

[2] = target: T2, FUN-EGF3 (G5) mutant (human, UniProt P35555 45-178, 113S-R-S-I-Q117 replaced with five glycines)
T2 construct: human fibrillin-1 FUN-EGF3, residues R45-E178, with 113S-R-S-I-Q117 of the EGF1-EGF2 linker replaced with five glycines; also called G5 FUN-EGF3
T2 sequence (P35555 other isoform, or with tags, fused parts or gaps with the stated changes): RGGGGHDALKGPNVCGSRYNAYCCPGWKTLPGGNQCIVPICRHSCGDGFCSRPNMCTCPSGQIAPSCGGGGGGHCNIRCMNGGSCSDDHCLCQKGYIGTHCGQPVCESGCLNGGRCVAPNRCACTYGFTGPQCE

[3] = target: T3, human fibrillin-1 FUN-EGF3 fragment (residues R45-E178) (human, UniProt P35555 45-178)
T3 construct: human fibrillin-1, fibrillin unique N-terminal (FUN) domain and EGF1-EGF3, residues R45-E178; The vector pQE-30 is named; also called wild-type (WT) FUN-EGF3; fibrillin N-terminal fragment
T3 sequence (P35555 45-178): as the sequence (P35555 other isoform, or with tags, fused parts or gaps with the stated changes) above, with G69S, G70R, G71S, G72I, G73Q counted along it

[4] = target: T4, R62A FUN-EGF3 (human, UniProt P35555 45-178, R62A)
T4 construct: human fibrillin-1 FUN-EGF3, residues R45-E178, with R62A
T4 sequence (P35555 45-178 R62A): as the sequence (P35555 other isoform, or with tags, fused parts or gaps with the stated changes) above, with R18A, G69S, G70R, G71S, G72I, G73Q counted along it

[5] = target: T5, S88A FUN-EGF3 (human, UniProt P35555 45-178, S88A)
T5 construct: human fibrillin-1 FUN-EGF3, residues R45-E178, with S88 substituted with alanine
T5 sequence (P35555 45-178 S88A): as the sequence (P35555 other isoform, or with tags, fused parts or gaps with the stated changes) above, with S44A, G69S, G70R, G71S, G72I, G73Q counted along it

- binding result [1]: binds
- binding result [2]: binds
- binding result [3]: binds
- binding result [4]: binds
- binding result [5]: binds
B1: human fibrillin-1 cbEGF41-43 fragment (residues D2567-V2687), biotinylated, C-terminal BirA tag (domain or fragment)
chain: not shown
modifications: biotin, site-specific, on the BirA tag
notes: Held on streptavidin-coated magnetic beads by its biotin; also called fibrillin C-terminal fragment; not shown: BirA tag, C-terminal, kept
